The numbers were not newly measured in PMC12720343, which cites them from elsewhere.

The term Kd denotes the constant that tells how readily two partners part at equilibrium.

This data set addresses SpoIIQ extracytoplasmic fragment (Bacillus subtilis) (UniProt P71044).
Chain of UniProt P71044 (P71044 43-283): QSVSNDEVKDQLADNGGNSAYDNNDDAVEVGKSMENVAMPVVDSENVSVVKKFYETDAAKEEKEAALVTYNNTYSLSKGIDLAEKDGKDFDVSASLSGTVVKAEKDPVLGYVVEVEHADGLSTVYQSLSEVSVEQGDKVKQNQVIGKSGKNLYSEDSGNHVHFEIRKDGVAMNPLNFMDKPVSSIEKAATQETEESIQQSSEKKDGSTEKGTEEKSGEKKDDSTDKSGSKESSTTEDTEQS

Regarding “SpoIIIAH extracytoplasmic fragment (from UniProt P49785)”, the Kd was 1 µM.
